Experiments:
[1] = biological target: T1, human programmed cell death protein 1 (hPD-1) C93S (aa 24-167) (Homo sapiens, UniProt Q15116, C93S); assay: SPR; Carterra LSA; Fab from the ammonium sulfate precipitate of the culture supernatant immobilised on a NiHC200M chip; hPD-1 (1-1024 nM) or mPD-1-Fc (4-1024 nM) as analyte, fourfold dilution series, no regeneration; HBS-EP pH 7.4, 25 °C; medians over the spots of a construct, KD = koff/kon; conditions: one partner purified
T1 construct: made as a fusion with a TEV site and human Fc; the Fc was cut off with TEV protease; source: Expi293F, purified (Protein A, TEV cleavage of Fc, SEC; monomer fractions); not shown: Fc (human), C-terminal, cleaved
Method in brief: (§1)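 Fabs, ammonium sulfate-precipitated from Brevibacillus supernatants and redissolved in HBS-EP, were captured in duplicate on a NiHC200M chip on a Carterra LSA at 25 °C. Fourfold series of human PD-1 (1–1024 nM) or mouse PD-1-Fc (4–1024 nM) were run without regeneration, with association for 10 min and dissociation for 5 min. Rates were fitted with the kdka model, choosing the better of slow- or fast-dissociation settings, and unconfirmed binders were given kon 10^3 […] and koff 10^−2 s^−1. The dissociation constant KD is koff/kon based on per-construct medians.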

[2] = biological target: T2, mouse programmed cell death protein 1 Fc fusion protein (mPD-1-Fc), mPD-1 C60S (aa 25-167) (Mus musculus, UniProt Q02242, stabilised); assay: as above; conditions: one partner purified
T2 construct: not cleaved; source: Expi293F, purified (Protein A, SEC; dimeric fraction); not shown: Fc (human), C-terminal, kept
Method in brief: as §1

T1 sequence (Q15116 24-167 C93S): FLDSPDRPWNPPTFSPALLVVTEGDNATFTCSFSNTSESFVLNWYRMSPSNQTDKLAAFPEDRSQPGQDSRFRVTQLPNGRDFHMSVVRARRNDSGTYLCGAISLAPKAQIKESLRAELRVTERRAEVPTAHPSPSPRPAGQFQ

Binder	Kd [1] [nM]	koff [1] [s⁻¹]	kon [1] [M⁻¹ s⁻¹]	Kd [2] [nM]	koff [2] [s⁻¹]	kon [2] [M⁻¹ s⁻¹]
toripalimab Fab H.G56Y (Fab, V domains shown, heavy chain of Sm3 with this change; numbers count from the chain's first residue; as the light chain of Sm3; source: Brevibacillus, culture supernatant (ammonium sulfate precipitate); not shown: 6xHis, C-terminal, kept; 6xHN, C-terminal, kept) VH: QGQLVQSGAEVKKPGASVKVSCKASGYTFTDYEMHWVRQAPIHGLEWIGVIESETYGTAYNQKFKGRVTITADKSTSTAYMELSSLRSEDTAVYYCAREGITTVATTYYWYFDVWGQGTTVTVSS VL: DVVMTQSPLSLPVTLGQPASISCRSSQSIVHSNGNTYLEWYLQKPGQSPQLLIYKVSNRFSGVPDRFSGSGSGTDFTLKISRVEAEDVGVYYCFQGSHVPLTFGQGTKLEIK	< 1.7	< 1e-05	5890	502	0.0174	34700
toripalimab Fab H.G57A (Fab, V domains shown, heavy chain of Sm3 with this change; numbers count from the chain's first residue; as the light chain of Sm3; source: Brevibacillus, culture supernatant (ammonium sulfate precipitate); not shown: 6xHis, C-terminal, kept; 6xHN, C-terminal, kept) VH: QGQLVQSGAEVKKPGASVKVSCKASGYTFTDYEMHWVRQAPIHGLEWIGVIESETGATAYNQKFKGRVTITADKSTSTAYMELSSLRSEDTAVYYCAREGITTVATTYYWYFDVWGQGTTVTVSS VL: DVVMTQSPLSLPVTLGQPASISCRSSQSIVHSNGNTYLEWYLQKPGQSPQLLIYKVSNRFSGVPDRFSGSGSGTDFTLKISRVEAEDVGVYYCFQGSHVPLTFGQGTKLEIK	0.598	1.47e-05	24500	125	0.00625	50100
toripalimab Fab H.D31Y (Fab, V domains shown, heavy chain of Sm3 with this change; numbers count from the chain's first residue; as the light chain of Sm3; source: Brevibacillus, culture supernatant (ammonium sulfate precipitate); not shown: 6xHis, C-terminal, kept; 6xHN, C-terminal, kept) VH: QGQLVQSGAEVKKPGASVKVSCKASGYTFTYYEMHWVRQAPIHGLEWIGVIESETGGTAYNQKFKGRVTITADKSTSTAYMELSSLRSEDTAVYYCAREGITTVATTYYWYFDVWGQGTTVTVSS VL: DVVMTQSPLSLPVTLGQPASISCRSSQSIVHSNGNTYLEWYLQKPGQSPQLLIYKVSNRFSGVPDRFSGSGSGTDFTLKISRVEAEDVGVYYCFQGSHVPLTFGQGTKLEIK	< 0.349	< 1e-05	28600	291	0.0133	45600
toripalimab Fab H.G57Y (Fab, V domains shown, heavy chain of Sm3 with this change; numbers count from the chain's first residue; as the light chain of Sm3; source: Brevibacillus, culture supernatant (ammonium sulfate precipitate); not shown: 6xHis, C-terminal, kept; 6xHN, C-terminal, kept) VH: QGQLVQSGAEVKKPGASVKVSCKASGYTFTDYEMHWVRQAPIHGLEWIGVIESETGYTAYNQKFKGRVTITADKSTSTAYMELSSLRSEDTAVYYCAREGITTVATTYYWYFDVWGQGTTVTVSS VL: DVVMTQSPLSLPVTLGQPASISCRSSQSIVHSNGNTYLEWYLQKPGQSPQLLIYKVSNRFSGVPDRFSGSGSGTDFTLKISRVEAEDVGVYYCFQGSHVPLTFGQGTKLEIK	3.35	0.000138	41100	90.3	0.00664	73500
toripalimab Fab H.T58A (Fab, V domains shown, heavy chain of Sm3 with this change; numbers count from the chain's first residue; as the light chain of Sm3; source: Brevibacillus, culture supernatant (ammonium sulfate precipitate); not shown: 6xHis, C-terminal, kept; 6xHN, C-terminal, kept) VH: QGQLVQSGAEVKKPGASVKVSCKASGYTFTDYEMHWVRQAPIHGLEWIGVIESETGGAAYNQKFKGRVTITADKSTSTAYMELSSLRSEDTAVYYCAREGITTVATTYYWYFDVWGQGTTVTVSS VL: DVVMTQSPLSLPVTLGQPASISCRSSQSIVHSNGNTYLEWYLQKPGQSPQLLIYKVSNRFSGVPDRFSGSGSGTDFTLKISRVEAEDVGVYYCFQGSHVPLTFGQGTKLEIK	< 0.662	< 1e-05	15100	169	0.0066	39000
toripalimab Fab H.T58Y (Fab, V domains shown, heavy chain of Sm3 with this change; numbers count from the chain's first residue; as the light chain of Sm3; source: Brevibacillus, culture supernatant (ammonium sulfate precipitate); not shown: 6xHis, C-terminal, kept; 6xHN, C-terminal, kept) VH: QGQLVQSGAEVKKPGASVKVSCKASGYTFTDYEMHWVRQAPIHGLEWIGVIESETGGYAYNQKFKGRVTITADKSTSTAYMELSSLRSEDTAVYYCAREGITTVATTYYWYFDVWGQGTTVTVSS VL: DVVMTQSPLSLPVTLGQPASISCRSSQSIVHSNGNTYLEWYLQKPGQSPQLLIYKVSNRFSGVPDRFSGSGSGTDFTLKISRVEAEDVGVYYCFQGSHVPLTFGQGTKLEIK	1.26	1.54e-05	12300	215	0.0107	49600
toripalimab Fab H.A59Y (Fab, V domains shown, heavy chain of Sm3 with this change; numbers count from the chain's first residue; as the light chain of Sm3; source: Brevibacillus, culture supernatant (ammonium sulfate precipitate); not shown: 6xHis, C-terminal, kept; 6xHN, C-terminal, kept) VH: QGQLVQSGAEVKKPGASVKVSCKASGYTFTDYEMHWVRQAPIHGLEWIGVIESETGGTYYNQKFKGRVTITADKSTSTAYMELSSLRSEDTAVYYCAREGITTVATTYYWYFDVWGQGTTVTVSS VL: DVVMTQSPLSLPVTLGQPASISCRSSQSIVHSNGNTYLEWYLQKPGQSPQLLIYKVSNRFSGVPDRFSGSGSGTDFTLKISRVEAEDVGVYYCFQGSHVPLTFGQGTKLEIK	2.18	4.81e-05	22100	345	0.0135	39200

From article PMC10663500, “High-throughput analysis system of interaction kinetics for data-driven antibody design” (Scientific Reports, 2023)
